Measured values reported in the DeepSol protein solubility set.

Assay: soluble on expression in E. coli; label from the status in PepcDB or PDB records

| Sequence | soluble on expression in E. coli |
| --- | --- |
| GPGSMYARYRTRSRFYKRPEKMLKAYNVSPNLLRLPKVKPGLLKGIYTDEKIDLRDRERLELVESIRHPKERDFYQDHTYHNQWIARDLESHQKIQIAGRYPYFSPDYEIKPWIWYPGDTVEVVSGEGAGQRGAIIAVVKYKNEILVQNVNVQDVVIPASETRPEQVVQREHPISVLRVRHVDPSTNQLCHLEIVKVRNKETGELEERRISLESGALLPIPAPEETVEAGDPLKDTAIQDADEETYDREKEMPLLVVRRLQAMENYFVDSLQKSHEYHKALQMRNAQDMQTFQKDVLVRATEKLAAAAAVFGHGAMAEAGSQAASVASESSQAGDAEEDAVKGTITVETVVAEVLKSEQRFRSDAAAPGVPGWWQNMIDAYVSVLEEEEATIEAEAAAQAQAAEADRRAEQLMADATAEVGQSMEEDGTMEGGDEDLDEQDGDLDEDSSRSDRSK | not soluble |
| GPGSMYCHAGVPSTSPSPTDFSEVHKILCGHIKQGNNFSVAAAVALEPLHGSSEFWRTCGYRSGIVSALLASSLGVQRETDQLSHLEPMTVADVYAMLRHVVDENAHLRQIIARLESGECDPDDGSGGITSSTERLRSLISEGYDALTGRSSPCMGEYDCGQTPGKWKTCSNGAAGTKRRRDSPEVTEWAYVRPESPVPASETLSPAANSGDDTVDEAEQNNALDVLEQLPALPGTTRTVSSFDAVGEMVNRGAGGPSLHPTNPSEFRVGSERGSTIETHSSSEVSNFANVGVGTSSGKQKRYKFSASEDEAIIKGLARFTKGQQRFQQIYYAYRSVWHPARTVSQLYDHWRGTLRYKVIQQQGYRGKNSVAARSPEKASNMENNE | not soluble |
| GPGSPPSDPRSLHFYNPYHPNSYIRAMLAVSNVVQEYDSDGMFPVYGFGAVAPFTNGTSHFFPLSGNPSNAYLNGMQAVVDTYAGLLPMLQFSGPTNFAPTIRTITDGARRLRGVYTILLILTDGTITDMQDTIDAIVAADDAPLSIVIIGIGRADFSAMVQLDGDGGVLRDRSNRPARRDLVQFVSFSEFEGKNPARLAAAVLLEIPKQVEVWGRIVHATPGHF | not soluble |
| GPHMPEQYRYTLPVKAGEQRLLGELTGAACATLVAEIAERHAGPVVLIAPDMQNALRLHDEISQFTDQMVMNLADWETLPYDSFSPHQDIISSRLSTLYQLPTMQRGVLIVPVNTLMQRVCPHSFLHGHALVMKKGQRLSRDALRTQLDSAGYRHVDQVMEHGEYATRGALLDLFPMGSELPYRLDFFDDEIDSLRVFDVDSQRTLEEVEAINLLPAHEFPTDKAAIELFRSQWRDTFEVKRDPEHIYQQVSKGTLPAGIEYWQPLFFSEPLPPLFSYFPANTLLVNTGDLETSAERFQADTLARFENRGVDPMRPLLPPQSLWLRVDELFSELKNWPRVQLKTEHLPTKAANANLGFQKLPDLAVQAQQKAPLDALRKFLETFDGPVVFSVESEGRREALGELLARIKIAPQRIMRLDEASDRGRYLMIGAAEHGFVDTVRNLALICESDLLGERVARRRQDSRRTINPDTLIRNLAELHIGQPVVHLEHGVGRYAGMTTLEAGGITGEYLMLTYANDAKLYVPVSSLHLISRYAGGAEENAPLHKLGGDAWSRARQKAAEKVRDVAAELLDIYAQRAAKEGFAFKHDREQYQLFCDSFPFETTPDQAQAINAVLSDMCQPLAMDRLVCGDVGFGKTEVAMRAAFLAVDNHKQVAVLVPTTLLAQQHYDNFRDRFANWPVRIEMISRFRSAKEQTQILAEVAEGKIDILIGTHKLLQSDVKFKDLGLLIVDEEHRFGVRHKERIKAMRANVDILTLTATPIPRTLNMAMSGMRDLSIIATPPARRLAVKTFVREYDSMVVREAILREILRGGQVYYLYNDVENIQKAAERLAELVPEARIAIGHGQMRERELERVMNDFHHQRFNVLVCTTIIETGIDIPTANTIIIERADHFGLAQLHQLRGRVGRSHHQAYAWLLTPHPKAMTTDAQKRLEAIASLEDLGAGFALATHDLEIRGAGELLGEEQSGSMETIGFSLYMELLENAVDALKAGREPSLEDLTSQQTEVELRMPSLLPDDFIPDVNTRLSFYKRIASAKTENELEEIKVELIDRFGLLPDPARTLLDIARLRQQAQKLGIRKLEGNEKGGVIEFAEKNHVNPAWLIGLLQKQPQHYRLDGPTRLKFIQDLSERKTRIEWVRQFMRELEENAIA | soluble |
| GPLGSALEIAEQLTLLDHLVFKSIPYEEFFGQGWMKAEKYERTPYIMKTTKHFNHVSNFIASEIIRNEDISARASAIEKWVAVADICRCLHNYNAVLEITSSINRSAIFRLKKTWLKVSKQTKSLLDKLQKLVSSDGRFKNLRESLRNCDPPCVPYLGMYLTDLVFIEEGTPNYTEDGLVNFSKMRMISHIIREIRQFQQTTYKIDPQPKVIQYLLDESFMLDEESLYESSLLIEPKLPT | soluble |
| GPLGSKAPTVFSQNEASLLNQLKNIANREDYVVTWWDYGYPVRYYSDVKTLVDGGKHLGKDNFFPSFALSKDEQAAANMARLSVEYTEKSFYAPQNDILKSDILQAMMKDYNQSNVDLFLASLSKPDFKIDTPKTRDIYLYMPARMSLIFSTVASFSFINLDTGVLDKPFTFSTAYPLDVKNGEIYLSNGVVLSDDFRSFKIGDNVVSVNSIVEINSIKQGEYKITPIDDKAQFYIFYLKDSAIPYAQFILMDKTMFNSAYVQMFFLGNYDKNLFDLVINSRDAKVFKLKI | soluble |
| GQDRSEATLIKRFKGEGVRYKAKLIGIDEVSAARGDKLCQDSMMKLKGVVAGARSKGEHKQKIFLTISFGGIKIFDEKTGALQHHHAVHEISYIAKDITDHRAFGYVCGKEGNHRFVAIKTAQAAEPVILDLRDLFQLIYELKQREELEKKA | soluble |
| GRSDTYDVLANRIENAVEQHRTEQRFWNALSWYQRLVEQELAGVCIIQDGTFVYVNQKLADIFSYDQSELIDESPALLTAEGDGDRLPESLRAADSDELDTFHSKFEGRQANGETRTIEVSGGSIEYDGEPAWIGVLRD | not soluble |
| GSARQQEIDMKRQQRFFRIPFIRPADQYKDPQNKKKGWWYAHFDGPWIARQMELHPDKPPILLVAGKDDMEMCELNLEETGLTRKRGAEILPRQFEEIWERCGGIQYLQSAIESRQARPTYATAMLQNLLKGSSGGSLVPR | soluble |
| GSDARSRGRVPGYASSSLYRESGIISARQLALLQRMLPRLRLEQLFRCEWLQQRLARGLALGREEVRQILLCAAQDDDGWCSELGDRVNLAVPQSMIDWVLLPVYGWWESLLDQAIPGWRLSLVELETQSRQLRVKSEFWSRVAELEPEQAREELARVAKCQARTQEQVAELAGKLETASALAKSAWPNWQRGMATLLASGGLAGFEPIPEVLECLWQPLCRLDDDVGAADAVQAWLHERNLCQAQDHFYWQS | not soluble |
| GSELKDYYAIMGVKPTDDLKTIKTAYRRLARKYHPDVSKEPDAEARFKEVAEAWEVLSDEQRRAEYDQMWQHR | soluble |
| GSFTMPGLVDSNPAPPESQEKKPLKPCCACPETKKARDACIIEKGEEHCGHLIEAHKECMRALGFKI | soluble |
| GSGIIEFHVIGNSLTPKANRRVLLWLVGLQNVFSHQLPRMPKEYIARLVFDPKHKTLALIKDGRVIGGICFRMFPTQGFTEIVFCAVTSNEQVKGYGTHLMNHLKEYHIKHNILYFLTYADEYAIGYFKKQGFSKDIKVPKSRYLGYIKDYEGATLMECELNPRIPYT | soluble |
| GSHGRSRFVKKDGHCNVQFINVGEKRNETLVFSHNAVIAMRDGKLCLMWRVGNLQKSHLVEAHVRAQLLKSRITSEGEYIPLDQIDINVGFDSGIDRIFLVSPITIVHEIDEDSPLYDLSKQDIDNADFEIVVILEGMVEATAMTKQCRSSYLANEILWGHRYEPVLFEEKHYYKVDYSRFHKTYEVPNTPLCSARDLAEKKYILSNA | soluble |
| GSHMASMTGGQQMGRGSMLPRLICINDYEQHAKSVLPKSIYDYYRSGANDEETLADNIAAFSRWKLYPRMLRNVAETDLSTSVLGQRVSMPICVGATAMQRMAHVDGELATVRACQSLGTGMMLSSWATSSIEEVAEAGPEALRWLQLYIYKDREVTKKLVRQAEKMGYKAIFVTVDTPYLGNRLDDVRNRFKLPPQLRMKNFETSTLSFSPEENFGDDSGLAAYVAKAIDPSISWEDIKWLRRLTSLPIVAKGILRGDDAREAVKHGLNGILVSNHGARQLDGVPATIDVLPEIVEAVEGKVEVFLDGGVRKGTDVLKALALGAKAVFVGRPIVWGLAFQGEKGVQDVLEILKEEFRLAMALSGCQNVKVIDKTLVRKNPLAVSKI | soluble |
| GSHMASMTGGQQMGRGSMTQDEMKKAAGWAALKYVEKGSIVGVGTGSTVNHFIDALGTMSEEIKGAVSSSVASTEKLEALGIKIFDCNEVASLDIYVDGADEINADREMIKGGGAALTREKIVAAIADKFICIVDGTKAVDVLGTFPLPVEVIPMARSYVARQLVKLGGDPCYREGVITDNGNVILDVYGMKITNPKQLEDQINAIPGVVTVGLFAHRGADVVITGTPEGAKIEE | soluble |
| GSHMDTSLAEEVQQTMATLAPNRFFFMSPYRSFTTSGCFARFDEPAVNGDSPDSPFQQKLAALFADAKAQGIKNPVMVGAIPFDPRQPSSLYIPESWQSFSRQEKQASARRFTRSQSLNVVERQAIPEQTTFEQMVARAAALTATPQVDKVVLSRLIDITTDAAIDSGVLLERLIAQNPVSYNFHVPLADGGVLLGASPELLLRKDGERFSSIPLAGSARRQPDEVLDREAGNRLLASEKDRHEHELVTQAMKEVLRERSSELHVPSSPQLITTPTLWHLATPFEGKANSQENALTLACLLHPTPALSGFPHQAATQVIAELEPFDRELFGGIVGWCDSEGNGEWVVTIRCAKLRENQVRLFAGAGIVPASSPLGEWRETGVKLSTMLNVFGLH | soluble |
| GSHMEEAKGPVKHVLLASFKDGVSPEKIEELIKGYANLVNLIEPMKAFHWGKDVSIENLHQGYTHIFESTFESKEAVAEYIAHPAHVEFATIFLGSLDKVLVIDYKPTSVSL | soluble |
| GSHMFYAVRRGRKTGVFLTWNECRAQVDRFPAARFKKFATEDEAWAFVRKSAS | soluble |
| GSHMGFLSGKRILVTGVASKLSIAYGIAQAMHREGAELAFTYQNDKLKGRVEEFAAQLGSDIVLQCDVAEDASIDTMFAELGKVWPKFDGFVHSIGFAPGDQLDGDYVNAVTREGFKIAHDISSYSFVAMAKACRSMLNPGSALLTLSYLGAERAIPNYNVMGLAKASLEANVRYMANAMGPEGVRVNAISAGPIRTLAASGIKDFRKMLAHCEAVTPIRRTVTIEDVGNSAAFLCSDLSAGISGEVVHVDGGFSIAAMNELELK | soluble |
| GSHMGRSQKVSQMTKVETRLEILDVTLRDGEQTRGVSFSTSEKLNIAKFLLQKLNVDRVEIASARVSKGELETVQKIMEWAATEQLTERIEILGFVDGNKTVDWIKDSGAKVLNLLTKGSLHHLEKQLGKTPKEFFTDVSFVIEYAIKSGLKINVYLEDWSNGFRNSPDYVKSLVEHLSKEHIERIFLPDTLGVLSPEETFQGVDSLIQKYPDIHFEFHGHNDYDLSVANSLQAIRAGVKGLHASINGLGERAGNTPLEALVTTIHDKSNSKTNINEIAITEASRLVEVFSGKRISANRPIVGEDVFTQTAGVHADGDKKGNLYANPILPERFGRKR | soluble |
| GSHMPTAIESCMVKFELSSSKWHMTSPKPHCVNTTSDGKLKILQSGTYLIYGQVIPVDKKYIKDNAPFVVQIYKKNDVLQTLMNDFQILPIGGVYELHAGDNIYLKFNSKDHIQKTNTYWGIILMPDLPFIS | soluble |
